This is an account of results in patent publication US20250026813A1.

This assay has as its target SARS-CoV-2 spike trimer protein (wild type), in the envelope of lentiviral pseudovirus particles (SARS-CoV-2) (UniProt P0DTC2). The experiment in a line: cell-based or functional assay.

4A8 (antibody) yielded a Fold change relative to SAD S35 antibody of 5.44 fold.
